{
  "source": "patent US20220144922A1",
  "about": "(Adimab, published 2022)",
  "key": {"[1]": {"target": "T1, prefusion-stabilized RSV F ectodomain (DS-Cav1), subtype B (respiratory syncytial virus subtype B)", "T1 construct": "extracellular domain; also called Prefusion subtype B", "test": "BLI, IgG on sensor", "procedure": "IgG binding to DS-Cav1 and FA FP was determined by BLI measurements using a FortéBio Octet HTX instrument (Pall Life Sciences). […] Data was analyzed using the ForteBio Data Analysis Software 7. The data was fit to a 1:1 binding model to calculate an association and dissociation rate, and KD was calculated using the ratio kd/kₐ."}, "[2]": {"target": "RSV F protein of subtype A strain A2, on virus (respiratory syncytial virus subtype A …, UniProt P03420 26-574)", "test": "cell-based or functional assay"}, "[3]": {"target": "RSV F protein of subtype B strain 18537, on virus (respiratory syncytial virus subtype B …, UniProt P13843 26-574)", "test": "cell-based or functional assay"}},
  "data": [
    {"binder": "ADI-15631 (antibody, V domains shown, IgG) VH: QVQLVESGGGLVQPGRSLRLSCAASGFTFDNYPMHWIRQAPGKGLEWVSGISWHSGSIGYADSVKGRFTISRDNAKNSLYLQMNSLRTEDTALYYCAKDAHYFDNSGHYYYGLDVWGQGTTVTVSS VL: EIVLTQSPATLSVSPGERATLSCRASQNIINNLAWYQQKPGQAPRLLISGASTRATGIPARFSGSGSGTEFTLTITSLQSEDFAVYYCQQYNNWPLTFGGGTKVDIK", "values": [
      {"measurement": "Kd", "setting": "[1]", "result": 0.552, "unit": "nM"},
      {"measurement": "Neut IC50 (ug/ml) subtype A", "setting": "[2]", "result": 0.099, "unit": "µg/mL"},
      {"measurement": "Neut IC50 (ug/ml) subtype B", "setting": "[3]", "result": 0.207, "unit": "µg/mL"}
    ]},
    {"binder": "ADI-15622 (antibody, V domains shown, IgG; also called Antibody Number 187) VH: QVQLQESGGGLVQPGGSLRLSCSASGFTFSNYGMSWVRQAPGKGLEWVSGIGVSDGSTHYADSVKGRFIISRDNSKNMLSLQMSSLGVDDTAVYYCARIVIVGVLRFQEWLSSDGMDVWGQGTTVTVSS VL: DIVMTQTPSSVSASVGDRVTITCRASQAISGGLAWYQQKAGKAPKLLIYAASNLPSGVPSRFSGSGSGTDFTLTISSLQPEDFATYYCQQANSFPFTFGQGTRLEIK", "values": [
      {"measurement": "Kd", "setting": "[1]", "result": 1.51, "unit": "nM"},
      {"measurement": "Neut IC50 (ug/ml) subtype A", "setting": "[2]", "result": 0.544, "unit": "µg/mL"},
      {"measurement": "Neut IC50 (ug/ml) subtype B", "setting": "[3]", "result": 1.37, "unit": "µg/mL"}
    ]},
    {"binder": "ADI-15625 (antibody, V domains shown, IgG; also called Antibody Number 190) VH: EVQLVESGAEVRKPGASVQVSCKASGYTFTSYYMHWVRQAPGHGLEWMGMIYPSGGSTSYAQKFQGRVTMTRDTSTSTVYMELSSLRSEDAAVYYCARDRAGCSGGSCYYYGMDVWGQGTTVTVSS VL: NFMLTQPPSVSVSPGQTASITCSGNKLGDKYACWYQQKPGQSPVLVISQDSKRPSGIPERFSGSNSGNTATLTISGTQAMDEADYYCQAWDSRTVVFGGGTKLTVL", "values": [
      {"measurement": "Kd", "setting": "[1]", "result": 2.61, "unit": "nM"},
      {"measurement": "Neut IC50 (ug/ml) subtype A", "setting": "[2]", "result": 0.239, "unit": "µg/mL"},
      {"measurement": "Neut IC50 (ug/ml) subtype B", "setting": "[3]", "result": 1.2, "unit": "µg/mL"}
    ]},
    {"binder": "ADI-15616 (antibody, V domains shown, IgG) VH: QVQLVQSGGGLVKPGGSLRLSCAASGFTFSDHYMTWIRQAPGKGLEWVSYISSTSSFTNYADSVKGRFTISRDNAKKSLYLQMNSLRAEDTAVYYCARDRNWGYAYGSDYWGQGTLVTVSS VL: DIRLTQSPDTLSLSPGERATLSCRASQSVSSTYLAWYQQKPGQAPRLLIYGAFGRATGIPDRFSGSGSGTDFTLTISRLEPEDFAVYYCQLYGNSRTFGQGTKLEIK", "values": [
      {"measurement": "Kd", "setting": "[1]", "result": 1.74, "unit": "nM"},
      {"measurement": "Neut IC50 (ug/ml) subtype A", "setting": "[2]", "result": 4.52, "unit": "µg/mL"},
      {"measurement": "Neut IC50 (ug/ml) subtype B", "setting": "[3]", "result": 5.58, "unit": "µg/mL"}
    ]},
    {"binder": "ADI-15637 (antibody, V domains shown, IgG; also called Antibody Number 202) VH: QVQLVQSGAEVTKPGASVRVSCKFSAYTLSALSIHWVRQAPGKGLEWMGAFDPEDGEPIYSQHFQGRVTMTEDTSTQTAYMELNSLRSEDTAVYYCSSVGPAGWFDPWGQGTLVTVSS VL: DIRLTQSPSSLSASVGDRVSITCRASQSISSYLHWYQQKPGKAPKLLIYAASSLQSGVPSRFSGSGSGSDFTLTISSLQPEDFATYYCHQSYIPPFTFGPGTKLEIK", "values": [
      {"measurement": "Kd", "setting": "[1]", "result": 6.13, "unit": "nM"},
      {"measurement": "Neut IC50 (ug/ml) subtype A", "setting": "[2]", "result": 0.357, "unit": "µg/mL"},
      {"measurement": "Neut IC50 (ug/ml) subtype B", "setting": "[3]", "result": 1.05, "unit": "µg/mL"}
    ]},
    {"binder": "ADI-15574 (antibody, V domains shown, IgG; also called Antibody Number 144) VH: QVQLVQSGGGLVKPGGSLRLSCAASGFTISGYNMFWVRQPPGKGLEWVSSITAGSSYLNYADSVKGRFIVSRDNAKNSLYLQMNSLRAEDTAVYFCARAPLLPAMMDLWGQGTTVTVSS VL: QSVLTQPPSVSGAPGQRVTISCTGSSSNIGAGYDVHWYQQLPGTAPKLLIYTNNNRPSGVPDRFSGSKSGTSASLAITGLQAEDEADYYCQSYDRSLNGYVFGTGTKLTVL", "values": [
      {"measurement": "Kd", "setting": "[1]", "result": 0.46, "unit": "nM"},
      {"measurement": "Neut IC50 (ug/ml) subtype A", "setting": "[2]", "result": 0.176, "unit": "µg/mL"},
      {"measurement": "Neut IC50 (ug/ml) subtype B", "setting": "[3]", "result": 0.226, "unit": "µg/mL"}
    ]},
    {"binder": "ADI-15624 (antibody, V domains shown, IgG; also called Antibody Number 189) VH: QVQLVQSGGGLVKAGGSLRLSCAASGFTISGFYMTWIRQAPGKGLEWVSSISGSSSYTNYADSVKGRFTISRDNAKNSLYLHMNSLRAEDTAVYYCARIRPDDSSGYPDYWGQGTLVTVSS VL: QSVLTQPPSVSGAPGQRVTISCTGSSSNIGAGYDVHWCQQLPGTAPKLLIYGNNNRPSGVPDRFSGSKSGTSASLAITGLQAEDEADYYCQSYDSSLSGFVFGTGTKVTVL", "values": [
      {"measurement": "Kd", "setting": "[1]", "result": 0.407, "unit": "nM"},
      {"measurement": "Neut IC50 (ug/ml) subtype A", "setting": "[2]", "result": 0.051, "unit": "µg/mL"},
      {"measurement": "Neut IC50 (ug/ml) subtype B", "setting": "[3]", "result": 0.033, "unit": "µg/mL"}
    ]},
    {"binder": "ADI-15648 (antibody, V domains shown, IgG; also called Antibody Number 212) VH: EVQLVESGGGLVKPGGSLRLSCAASGFTISGYNMFWVRQPPGKGLEWVSSITAGSSYLNYADSVKGRFIVSRDNAKNSLYLQMNSLRAEDTAVYFCARAPLLPAMMDLWGQGTTVTVSS VL: QSVVTQPPSVSGAPGQRVTISCTGSSSNIGAGYDVHWYQQLPGTAPKLLIYTNNNRPSGVPDRFSGSKSGTSASLAITGLQAEDEADYYCQSYDRSLNGYVFGTGTTVTVL", "values": [
      {"measurement": "Kd", "setting": "[1]", "result": 0.438, "unit": "nM"},
      {"measurement": "Neut IC50 (ug/ml) subtype A", "setting": "[2]", "result": 0.064, "unit": "µg/mL"},
      {"measurement": "Neut IC50 (ug/ml) subtype B", "setting": "[3]", "result": 0.145, "unit": "µg/mL"}
    ]},
    {"binder": "ADI-15635 (antibody, V domains shown, IgG; also called Antibody Number 200) VH: EVQLLESGGGLVKPGGSLRLSCAASGFTISGYNMFWVRQPPGKGLEWVSSITAGSSYLNYADSVKGRFIVSRDNAKNSLYLQMNSLRAEDTAVYFCARAPLLPAMMDLWGQGTTVTVSS VL: QSVLTQPPSVSGAPGQRVTISCTGSSSNIGAGYDVHWYQQLPGTAPKLLIYTNNNRPSGVPDRFSGSKSGTSASLAITGLQAEDEADYYCQSYDRSLNGYVFGTGTKVTVL", "values": [
      {"measurement": "Kd", "setting": "[1]", "result": 0.431, "unit": "nM"},
      {"measurement": "Neut IC50 (ug/ml) subtype A", "setting": "[2]", "result": 0.115, "unit": "µg/mL"},
      {"measurement": "Neut IC50 (ug/ml) subtype B", "setting": "[3]", "result": 0.226, "unit": "µg/mL"}
    ]},
    {"binder": "ADI-15620 (antibody, V domains shown, IgG) VH: QVQLVQSGAEVKKPGASVKVSCKASGYTFTSYDINWVRQATGHGLEWMGWMSPNSGYTGYAQKFQGRVTMSRNTSTGTAYMELSSLRSEDTAVYYCAREARDLRVGATNFDYWGQGTLVTVSS VL: QPVLTQPPSVSVSPGQTASITCSGDKLGDKYISWYQQRPGQSPVMVIYQDSKGPSGIPERFSGSNSGNTATLTISGTQAMDEADYYCQAWDSSIDVVFGGGTKLTVL", "values": [
      {"measurement": "Kd", "setting": "[1]", "result": 1.4, "unit": "nM"},
      {"measurement": "Neut IC50 (ug/ml) subtype A", "setting": "[2]", "result": 0.077, "unit": "µg/mL"},
      {"measurement": "Neut IC50 (ug/ml) subtype B", "setting": "[3]", "result": 0.053, "unit": "µg/mL"}
    ]},
    {"binder": "ADI-15559 (antibody, V domains shown, IgG; also called Antibody Number 130) VH: QVQLVQSGAEVKKPGSSVKVSCKASGGSLSTYGIHWVRQAPGQGLEWVGGVMTVYGKTTYGQNFQGRVTIAVDRSTNTAYMELSSLTSDDTGTYYCATDSYYVWTGSYPPPFDLWGQGTLVTVSS VL: EIVLTQTPGTQSLSPGQSATLSCRASHSVGNDYLAWYQQKPGQSPRLLIHGAYRRDSGIPDRFIGSGSGTDFTLTIDSLEPDDCAVYYCQQYGSWPLTFGGGTKVDIK", "values": [
      {"measurement": "Kd", "setting": "[1]", "result": 0.98, "unit": "nM"},
      {"measurement": "Neut IC50 (ug/ml) subtype A", "setting": "[2]", "result": 0.008, "unit": "µg/mL"},
      {"measurement": "Neut IC50 (ug/ml) subtype B", "setting": "[3]", "result": 0.006, "unit": "µg/mL"}
    ]},
    {"binder": "ADI-15621 (antibody, V domains shown, IgG; also called Antibody Number 186) VH: QVQLVQSGPEMKKPGSSVKVSCKPSGGTFSSYSVSWVRQAPGQGLEWMGGIIPIFGSSDYAQKFQGRLTITEDESTKTSYMQLNNLTSDDTAIYFCARDNYYVWTGHYPEFDFWGQGTLVTVSS VL: ETTLTQSPGTLSLSLGETATLSCRASQSVRSDYLAWYQQKPGQAPRLLISGASNRATAIPERFTGSGSGTDFTLTISSLEPADFAVYYCQQYGSTPITFGQGTRLEIK", "values": [
      {"measurement": "Kd", "setting": "[1]", "result": 0.555, "unit": "nM"},
      {"measurement": "Neut IC50 (ug/ml) subtype A", "setting": "[2]", "result": 0.018, "unit": "µg/mL"},
      {"measurement": "Neut IC50 (ug/ml) subtype B", "setting": "[3]", "result": 0.021, "unit": "µg/mL"}
    ]},
    {"binder": "ADI-15597 (antibody, V domains shown, IgG) VH: QVQLVQSGGGLVKPGGSLRLSCAGSGFTFSSYTLNWVRQAPGKGLEWVSSISSSSTYIYYADSVKGRFTISRDNAKNSLHLQMNSLRAEDTAVYYCARADYDRSVYHLNWFDPWGQGTLVTVSS VL: QSVLTQPPSVSGAPGQRVTISCTGSSSNIGAGYDVHWYQQLPGAAPKLLIYGNTNRPSGVPDRFSGSKSGTSASLAITGLQADDEADYYCQSYDSSLSGTWVFGGGTKLTVL", "values": [
      {"measurement": "Kd", "setting": "[1]", "result": 6.09, "unit": "nM"},
      {"measurement": "Neut IC50 (ug/ml) subtype A", "setting": "[2]", "result": 0.163, "unit": "µg/mL"},
      {"measurement": "Neut IC50 (ug/ml) subtype B", "setting": "[3]", "result": 1.79, "unit": "µg/mL"}
    ]},
    {"binder": "ADI-15615 (antibody, V domains shown, IgG; also called Antibody Number 180) VH: EVQLVETGGGLVKPGGSLRLSCAGSGFTFSSYTLNWVRQAPGKGLEWVSSISSSSTYIYYADSVKGRFTISRDNAKNSLHLQMNSLRAEDTAVYYCARADYDRSVYHLNWLDPWGQGTLVTVSS VL: QPVLTQPPSVSGAPGQRVTISCTGSSSNIGAGYDVHWYQQLPGAAPKLLIYGNTNRPSGVPDRFSGSKSGTSASLAITGLQADDEADYYCQSYDSSLSGTWVFGGGTKLTVL", "values": [
      {"measurement": "Kd", "setting": "[1]", "result": 11.6, "unit": "nM"},
      {"measurement": "Neut IC50 (ug/ml) subtype A", "setting": "[2]", "result": 0.977, "unit": "µg/mL"},
      {"measurement": "Neut IC50 (ug/ml) subtype B", "setting": "[3]", "result": 1.68, "unit": "µg/mL"}
    ]}
  ]
}
